These results are taken from patent publication US20250136963A1 (DENALI THERAPEUTICS, published 2025).

Sequences and labels used below:
B1: ETV:IDUA Fusion 3 (Fc fusion)
chain 1: DKTHTCPPCPAPEAAGGPSVFLFPPKPKDTLMISRTPEVTCVVVDVSHEDPEVKFNWYVDGVEVHNAKTKPREEQYNSTYRVVSVLTVLHQDWLNGKEYKCKVSNKALSAPIEKTISKAKGQPREPQVYTLPPSRDELTKNQVSLWCLVKGFYPSDIAVEWESYGTEWANYKTTPPVLDSDGSFFLYSKLTVTKEEWQQGFVFSCSVMHEALHNHYTQKSLSLSPGK
chain 2: EAPHLVQVDAARALWPLRRFWRSTGFCPPLPHSQADQYVLSWDQQLNLAYVGAVPHRGIKQVRTHWLLELVTTRGSTGRGLSYNFTHLDGYLDLLRENQLLPGFELMGSASGHFTDFEDKQQVFEWKDLVSSLARRYIGRYGLAHVSKWNFETWNEPDHHDFDNVSMTMQGFLNYYDACSEGLRAASPALRLGGPGDSFHTPPRSPLSWGLLRHCHDGTNFFTGEAGVRLDYISLHRKGARSSISILEQEKVVAQQIRQLFPKFADTPIYNDEADPLVGWSLPQPWRADVTYAAMVVKVIAQHQNLLLANTTSAFPYALLSNDNAFLSYHPHPFAQRTLTARFQVNNTRPPHVQLLRKPVLTAMGLLALLDEEQLWAEVSQAGTVLDSNHTVGVLASAHRPQGPADAWRAAVLIYASDDTRAHPNRSVAVTLRLRGVPPGPGLVYVTRYLDNGLCSPDGEWRRLGRPVFPTAEQFRRMRAAEDPVAAAPRPLPAGGRLTLRPALRLPSLLLVHVCARPEKPPGQVTRLRALPLTQGQLVLVWSDEHVGSKCLWTYEIQFSQDGKAYTPVSRKPSTFNLFVFSPDTGAVSGSYRVRALDYWARPGPFSDPVPYLEVPVPRGPPSPGNPGGGGSDKTHTCPPCPAPEAAGGPSVFLFPPKPKDTLMISRTPEVTCVVVDVSHEDPEVKFNWYVDGVEVHNAKTKPREEQYNSTYRVVSVLTVLHQDWLNGKEYKCKVSNKALSAPIEKTISKAKGQPREPQVYTLPPSRDELTKNQVSLSCAVKGFYPSDIAVEWESNGQPENNYKTTPPVLDSDGSFFLVSKLTVDKSRWQQGNVFSCSVMHEALHNHYTQKSLSLSPGK
notes: Heterodimer of the two chains; also called third N-terminal monozyme IDUA-Fc fusion protein
B2: ETV:IDUA Fusion 4 (Fc fusion)
chain 1: DKTHTCPPCPAPEAAGGPSVFLFPPKPKDTLMISRTPEVTCVVVDVSHEDPEVKFNWYVDGVEVHNAKTKPREEQYNSTYRVVSVLTVLHQDWLNGKEYKCKVSNKALSAPIEKTISKAKGQPREPQVYTLPPSRDELTKNQVSLWCLVKGFYPSDIAVEWESYGTEWANYKTTPPVLDSDGSFFLYSKLTVTKEEWQQGFVFSCSVMHEALHNHYTQKSLSLSPGK
chain 2: EAPHLVQVDAARALWPLRRFWRSTGFCPPLPHSQADQYVLSWDQQLNLAYVGAVPHRGIKQVRTHWLLELVTTRGSTGRGLSYNFTHLDGYLDLLRENQLLPGFELMGSASGHFTDFEDKQQVFEWKDLVSSLARRYIGRYGLAHVSKWNFETWNEPDHHDFDNVSMTMQGFLNYYDACSEGLRAASPALRLGGPGDSFHTPPRSPLSWGLLRHCHDGTNFFTGEAGVRLDYISLHRKGARSSISILEQEKVVAQQIRQLFPKFADTPIYNDEADPLVGWSLPQPWRADVTYAAMVVKVIAQHQNLLLANTTSAFPYALLSNDNAFLSYHPHPFAQRTLTARFQVNNTRPPHVQLLRKPVLTAMGLLALLDEEQLWAEVSQAGTVLDSNHTVGVLASAHRPQGPADAWRAAVLIYASDDTRAHPNRSVAVTLRLRGVPPGPGLVYVTRYLDNGLCSPDGEWRRLGRPVFPTAEQFRRMRAAEDPVAAAPRPLPAGGRLTLRPALRLPSLLLVHVCARPEKPPGQVTRLRALPLTQGQLVLVWSDEHVGSKCLWTYEIQFSQDGKAYTPVSRKPSTFNLFVFSPDTGAVSGSYRVRALDYWARPGPFSDPVPYLEVPVGGGGSDKTHTCPPCPAPEAAGGPSVFLFPPKPKDTLMISRTPEVTCVVVDVSHEDPEVKFNWYVDGVEVHNAKTKPREEQYNSTYRVVSVLTVLHQDWLNGKEYKCKVSNKALSAPIEKTISKAKGQPREPQVYTLPPSRDELTKNQVSLSCAVKGFYPSDIAVEWESNGQPENNYKTTPPVLDSDGSFFLVSKLTVDKSRWQQGNVFSCSVMHEALHNHYTQKSLSLSPGK
notes: Heterodimer of the two chains; also called fourth N-terminal monozyme IDUA-Fc fusion protein
B3: ETV:IDUA Fusion 6 (Fc fusion)
chain 1: DKTHTCPPCPAPEAAGGPSVFLFPPKPKDTLMISRTPEVTCVVVDVSHEDPEVKFNWYVDGVEVHNAKTKPREEQYNSTYRVVSVLTVLHQDWLNGKEYKCKVSNKALSAPIEKTISKAKGQPREPQVYTLPPSRDELTKNQVSLWCLVKGFYPSDIAVEWESYGTEWANYKTTPPVLDSDGSFFLYSKLTVTKEEWQQGFVFSCSVMHEALHNHYTQKSLSLSPGK
chain 2: DKTHTCPPCPAPEAAGGPSVFLFPPKPKDTLMISRTPEVTCVVVDVSHEDPEVKFNWYVDGVEVHNAKTKPREEQYNSTYRVVSVLTVLHQDWLNGKEYKCKVSNKALSAPIEKTISKAKGQPREPQVYTLPPSRDELTKNQVSLSCAVKGFYPSDIAVEWESNGQPENNYKTTPPVLDSDGSFFLVSKLTVDKSRWQQGNVFSCSVMHEALHNHYTQKSLSLSPGKGGGGSEAPHLVQVDAARALWPLRRFWRSTGFCPPLPHSQADQYVLSWDQQLNLAYVGAVPHRGIKQVRTHWLLELVTTRGSTGRGLSYNFTHLDGYLDLLRENQLLPGFELMGSASGHFTDFEDKQQVFEWKDLVSSLARRYIGRYGLAHVSKWNFETWNEPDHHDFDNVSMTMQGFLNYYDACSEGLRAASPALRLGGPGDSFHTPPRSPLSWGLLRHCHDGTNFFTGEAGVRLDYISLHRKGARSSISILEQEKVVAQQIRQLFPKFADTPIYNDEADPLVGWSLPQPWRADVTYAAMVVKVIAQHQNLLLANTTSAFPYALLSNDNAFLSYHPHPFAQRTLTARFQVNNTRPPHVQLLRKPVLTAMGLLALLDEEQLWAEVSQAGTVLDSNHTVGVLASAHRPQGPADAWRAAVLIYASDDTRAHPNRSVAVTLRLRGVPPGPGLVYVTRYLDNGLCSPDGEWRRLGRPVFPTAEQFRRMRAAEDPVAAAPRPLPAGGRLTLRPALRLPSLLLVHVCARPEKPPGQVTRLRALPLTQGQLVLVWSDEHVGSKCLWTYEIQFSQDGKAYTPVSRKPSTFNLFVFSPDTGAVSGSYRVRALDYWARPGPFSDPVPYLEVPVPRGPPSPGNP
notes: Heterodimer of the two chains; also called C-terminal monozyme IDUA-Fc fusion protein

T1 sequence (P02786 198-378 limits assumed): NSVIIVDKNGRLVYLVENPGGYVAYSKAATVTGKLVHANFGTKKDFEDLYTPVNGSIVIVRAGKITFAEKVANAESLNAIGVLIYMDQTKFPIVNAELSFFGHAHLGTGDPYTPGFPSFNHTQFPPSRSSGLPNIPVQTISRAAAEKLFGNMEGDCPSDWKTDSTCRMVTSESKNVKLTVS

The assay addresses T1, human apical domain TfR (human, UniProt P02786 198-378).
T1 construct: also called human TfR; human transferrin receptor 1 apical domain
Briefly: SPR (Biacore 8K), fusion captured on Protein A chip, human TfR apical domain as analyte, 1:1 Langmuir fit, monovalent. Here is the method: To determine whether IDUA-Fc fusion proteins with engineered TfR binding affects the ability of the modified Fc domain to interact with human TfR, the affinity of ETV:IDUA Fusions 3, 4, and 6 (Example 1) for human TfR was measured by surface plasmon resonance (SPR) using a Biacore 8K instrument (Cytiva). Five (5) μg/mL of the IDUA-Fc fusion proteins were captured for 1 minute on Protein A-coated Biacore™ Series S CM5 sensor chip and serial 3-fold dilutions of human apical domain TfR were injected at a flow rate of 30 μL/min. Each sample was analyzed with five consecutive 60-second injections with increasing human TfR concentrations followed by a 60-second dissociation at the end of the injection cycle. After each injection, the chip was regenerated using 10 mM glycine-HCl (pH 1.5). Binding response was corrected by subtracting the RU from a flow cell capturing an irrelevant IgG at similar density A. 1:1 Languir model of simultaneous fitting of kₒₙ and koff was used for kinetics analysis using Biacore™ Insight Evaluation Software.
Background: SPR reads the build-up and loss of mass on a sensor chip optically.
Turning to B1, the affinity, expressed as Kd, was 340 nM.
For B2 the value was 355 nM.
On to B3, for which the Kd (usually the equilibrium constant for the complex coming apart) came out at 200 nM.
